Measured values reported in patent US20210284711A1 (KAHR MEDICAL, published 2021).

Target: T1, human PDL1 (overexpressed on DLD1-PDL1 cells) (human, UniProt Q9NZQ7 19-290)
T1 construct: whole, on cells; also called B7H1; CD274
Experiment: flow cytometry on DLD1-PDL1 cells, GMFI plotted against DSP105 conc. [ug/ml] (two-fold steps)
Source text: Following, GMFI values were used to create a binding curve graph with a GraphPad Prism software (FIG. 10C). Taken together, both sides of the His-tagged DSP105_V17 (SEQ ID NO: 97), fusion protein, bind their relevant counterparts overexpressed on the surface of cells.

T1 sequence (Q9NZQ7 19-290): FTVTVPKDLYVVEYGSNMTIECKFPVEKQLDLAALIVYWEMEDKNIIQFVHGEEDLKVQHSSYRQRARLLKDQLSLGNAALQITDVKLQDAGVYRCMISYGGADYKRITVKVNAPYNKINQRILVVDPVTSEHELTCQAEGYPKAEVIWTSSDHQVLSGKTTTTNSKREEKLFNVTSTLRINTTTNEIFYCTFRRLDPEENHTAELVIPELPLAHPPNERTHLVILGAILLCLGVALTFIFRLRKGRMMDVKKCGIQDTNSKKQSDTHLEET

EC50 (read off the curve): ~0.9 µg/mL
B1: N-terminal His-tagged DSP105_V17 (PD1-4-1BBL variant fusion protein) (other)
chain: HHHHHHDSPDRPWNPPTFSPALLVVTEGDNATFTCSFSNTSESFVLNWYRMSPSNQTDKLAAFPEDRSQPGQDSRFRVTQLPNGRDFHMSVVRARRNDSGTYLCGAISLAPKAQIKESLRAELRVTERRAEVPTAHPSPSPRPAGQGSAASPRLREGPELSPDDPAGLLDLRQGMFAQLVAQNVLLIDGPLSWYSDPGLAGVSLTGGLSYKEDTKELVVAKAGVYYVFFQLELRRVVAGEGSGSVSLALHLQPLRSAAGAAALALTVDLPPASSEARNSAFGFQGRLLHLSAGQRLGVHLHTEARARHAWQLTQGATVLGLFRVTPEIPAGLPSPRSE
notes: also called N-terminal His-tagged DSP105_var17
